Results as given in the supplement of paper PMC9170038.

Tests used:
[1] = system: MS2 coat protein; assay: apparent KD of MS2 coat protein, switch ON state; designed switch direction (-1 OFF switch, 1 ON switch): -1; higher = weaker reporter binding; settings: FMN input: 0 or 200 uM; Eterna round: R93 (includes R88 designs)
Summary of the method: (§1)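 Designed RNA switches were transcribed on-chip from Illumina sequencing clusters and titrated with SNAP-549-labelled MS2 coat protein in twofold steps from 0.7 or 1.5 nM up to 3 µM. Each step lasted 0.8–1.5 h at first and 10–20 min by the end, in 100 mM Tris-HCl pH 7.5, 80 mM KCl and 4 mM MgCl2, without or with constant ligand. Apparent KD is the median, for each design, of fits to normalised cluster binding curves.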

[2] = system: MS2 coat protein; assay: apparent KD of MS2 coat protein, switch OFF state (with FMN for OFF switches, without FMN for ON switches); designed switch direction (-1 OFF switch, 1 ON switch): -1; higher = weaker reporter binding; settings: FMN input: 0 or 200 uM; Eterna round: R93 (includes R88 designs)
Summary of the method: as §1

Row | Sequence | apparent KD of MS2 coat protein [1] [nM] | apparent KD of MS2 coat protein [2] [nM]
1 | AAAAAGAGAGGAUAUACAUGAGGAUCACCCAUGUGACACAAAAAAAAAAAAAAAAAAUGUAGAAGGCUCAAAAA [65%, Moding Exclusion3-cac2, 18] | 35.5 | 97.2
2 | AAAAAUGGAGGAUAUACAUGAGGAUCACCCAUGUGUAACUAUACUAAGCGCUCCUCACGUAGAAGGCCAAAAAA [Gilly Gone Silly 14 - Jieux - Exclusion 3] | 74.1 | 31.4
3 | AAAAAGCUAGGAUAUACGAAAAAAAAGGGUAGAAAAAAAACACAUGAGGAUCACCCAUGUAGAAGGAGCAAAAA [Mat - Exclusion 2 - Tesla mod - D33] | 45.7 | 84.6
4 | AAGAACGAAGGAUAUACAUGAGGAUCACCCAUGUAAAAGAAAGAGGGAAAAGAGAAAAGUAGAAGGUCGAAGAA [Ptolemy VIII Euergetes II] | 20.4 | 23.8
5 | CUCUUGUCAGGAUAUUGAAGAAAAGAAAAGAAAGAAAAGAACAAGAAGGGACAUGAGGAUCACCCAUGUAAGAA [EteRNA is fun!] | 74.2 | 60.7
6 | AAAACGGUAGGAUAUACAUGAGGAUCACCCAUGUUAAAUUUAAAAAUAAAAUUAAAAUGUAGAAGGACCAAAAA [Mai Tai1] | 31.5 | 35
7 | GGAUGUCUAGGAUAUACAUGAGGAUCACCCAUGUGAGAGAAAAAAGUGAGAAAGAAAAGUAGAAGGAGGUGUCG [salish99-ex3-88] | 35.6 | 37.5
8 | AAAAGUUGAGGAUAUACAAAAUGAUUGCGAAAUCAAUUAAAACAUGAGGAUCACCCAUGUAGAAGGCGAUAAAA [Banishment 4 - Jieux - Exclusion 2] | 27 | 21.6
9 | AUCUUGUCAGGAUAUGACUACAUAAAAAAUAAAAAAUGUAGUCAGAAGGGACAUGAGGAUCACCCAUGUACCAA [Mat - Exclusion 4 - Eli mod - D96] | 20.4 | 22.3
10 | GGAUGUGAAGGAUAUACAUGAGGAUCACCCAUGUGAGAGAAAAAAGUGAGAAAGAAAAGUAGAAGGUCGUGUCG [salish99-ex3-86] | 34.9 | 36.9
11 | CAGUACUGAGGAUAUACAUGAGGAUCACCCAUGUGGUCAAGCUAGGAAACUAGCAAAUGUAGAAGGCAGUACUG [Ex3: 812] | 80.9 | 35.6
12 | AAAAUGUCAGGAUAUCUGGAUAGGAAAAAGAAAACCUAUCCAGAGAAGGGACAUGAGGAUCACCCAUGUAAAAA [JL cataway mod 3] | 92.9 | 171
13 | AAAAAUCGAGGAUAUACAUGAGGAUCACCCAUGUUAGAAAAUGAUUACACAAAAGAAAGUAGAAGGCGAUAAAA [Ex 3 May 20] | 27.9 | 23.4
14 | AACAGUACAGGAUAUACAUGAGGAUCACCCAUGUGAGAAACCAGUGGCGUACCACAAAGUAGAAGGGUACUGGA [Moding Maslow Revisited (73) 28] | 42.4 | 185
15 | AAAACGGUAGGAUAUACAGUCCGUUGUCGAAUGAUGAAAAGACAUGAGGAUCACCCAUGUAGAAGGACCGAAAA [Bienor] | 36.5 | 138
16 | AUAAAACAUGAGGAUCACCCAUGUGAGGAUAUCCUAAAAGAAAGAAAAAAAAAAAAAUGGAGAAGGCACAAUAA [Amethyst 47] | 119 | 159
17 | UAAAGACAUGAGGAUCACCCAUGUGAGGAUAUCGGAGAUAACGGAACAUCAAGUUCGGCGAGAAGGCGCAGGAA [JR_Exc001_Sub405] | 33.4 | 38
18 | AAAAAUAGAGGAUAUACAUGAAAAAAAAAAAAAAAAAAAAAACAUGAGGAUCACCCAUGUAGAAGGCUAAAAAA [double AU!] | 30.8 | 29.2
19 | GAAGAACAUGAGGAUCACCCAUGUCAGGAUAUACAGAAGGGAAUAAUAAAAUCUGGAAGUAGAAGGGACAAGAA [Ex 1 May 46] | 32.5 | 49.3
20 | UAUACGUGAGGAUAUGCGAAUACCACGUAAGACAUACAGACGCAGAAGGCACAUGAGGAUCACCCAUGUGAACC [JR_Exc004_Sub314] | 19.2 | 16.3
21 | AAGAACAGAGGAUAUACAUGAGGAUCACCCAUGUAAAAGAAAGAAAAGGGAAAGAAAAGUAGAAGGCUGAAGAA [Ankhkheperure Smenkhkare] | 22.9 | 42.8
22 | AGGGAGUAAGGAUAUGCAUAUAAUGAAGAGAAAGAAAAGAAGCAGAAGGUACAUGAGGAUCACCCAUGUAAAAA [milkweed 2] | 28.4 | 22.7
23 | GGAUGUGUAGGAUAUACAUGAGGAUCACCCAUGUGAGAGAAAAAAGUGAGAAAGAAAAGUAGAAGGACGUGUCG [salish99-ex3-89] | 41 | 38

Row | Sequence | apparent KD of MS2 coat protein [1] [nM] | apparent KD of MS2 coat protein [2] [nM]
24 | AUCAUGUAAGGAUAUUUAAGAAAAGAAAAGAAAGAAAAGAAAAAGAAGGUACAUGAGGAUCACCCAUGUAAGAA [EteRNA is fun!] | 27.1 | 18.9
25 | AACAGUACAGGAUAUACAUGAGGAUCACCCAUGUAGAGAGAAUAAAACAAAAAUAAAUGUAGAAGGGUACUGAA [Mat - Exclusion 3 - Eli mod - D68] | 24.5 | 25.5
26 | AUAAAACAUGAGGAUCACCCAUGUGAGGAUAUGCUAAAAUAAAAUAAAAUAAAAUAAUGCAGAAGGCACAAAUA [Fancy Pants] | 37.6 | 53.8
27 | CUCAUGUUAGGAUAUAUAUGAAAUGAAGUGAAAGAAAAGAAAUAGAAGGAACAUGAGGAUCACCCAUGUUAGAA [EteRNA is fun!] | 51 | 32.6
28 | GCAGGCCAAGGAUAUACAUGAGGAUCACCCAUGUGAGAGAAAAAAGUGAGAAAGAAAAGUAGAAGGUGGUUUGG [salish99-ex3-113] | 71.7 | 114
29 | AGCUAGUCAGGAUAUACGAACAUGUCAAAAGACGUGAACGGACAUGAGGAUCACCCAUGUAGAAGGGACUAGCA [Diamond 5] | 16.2 | 17.5
30 | AAAAAGUGAGGAUAUACAUGAGGAUCACCCAUGUGUUAAAAAAAAAGGGUGGAAGAAAGUAGAAGGCACCAAAA [Ex 3 May 50] | 33.7 | 22.9
31 | AAGAACGGAGGAUAUACAUGAAAGAAAGAAAAGAAAAGAAAACAUGAGGAUCACCCAUGUAGAAGGCCGAAGAA [EteRNA is fun!] | 23.4 | 53.3
32 | AGCUAGUCAGGAUAUACGAAAAUGACAGAAGACGUAAGGGAACAUGAGGAUCACCCAUGUAGAAGGGACUAGCA [Diamond 42] | 26.6 | 67.7
33 | AAGAAGUAAGGAUAUCGGAGAGAACAAGAAAGUGAAGAAUACGAGAAGGUACAUGAGGAUCACCCAUGUAAAGA [EXC - 4] | 26.9 | 19
34 | AAAUAACAUGAGGAUCACCCAUGUUAGGAUAUCUAAAUGGUGUAAACACCAGAAGAUGAGAGAAGGGACGUGGA [Enlalees] | 17.9 | 25.1
35 | AAAACGUGAGGAUAUGCACCAAAAAAGGAAAAACGGGUACGACAUGAGGAUCACCCAUGUAGAAGGCACGAAAA [Frodo Flailing 9 - Jieux - Exclusion 2] | 40.8 | 39
36 | AACAGUACAGGAUAUACAUGAGGAUCACCCAUGUGAAAAUUAAGUGGCGUACCACAGUGUAGAAGGGUACUGGA [Moding Maslow Revisited (73) 25] | 87.9 | 62.7
37 | AAGAAGCGAGGAUAUACAUGAGGAUCACCCAUGUAAAAGAAAGAAGGGAAAGAGAAAAGUAGAAGGCGCAAGAA [Hedjkheperre-setpenre Takelot II] | 70.7 | 109
38 | AAGAACGAAGGAUAUACAAAAUAAAAGAAAAGAAAGAAAGAACAUGAGGAUCACCCAUGUAGAAGGUCGAAGAA [Awybre Hor I] | 10.5 | 25.8
39 | AACAUGUUAGGAUAUUCAAGAAAAGAAAAGAAAGAAAAGAAGAAGAAGGAACAUGAGGAUCACCCAUGUAAGAA [EteRNA is fun!] | 33.3 | 27.1
40 | AUGUACCUAGGAUAUACAUGAGGAUCACCCAUGUACUGGGAGCAAUCAAGUUAAUAUUGUAGAAGGAGGUGAAA [JR_Exc003_Sub315] | 20.1 | 58.6
41 | AAAAUACAUGAGGAUCACCCAUGUGAGGAUAUGCUAUGGAAAUAAAAAAUAAAACAUAGCAGAAGGUACAAAAA [Mat - Exclusion 1 - Eli mod - D42] | 20.9 | 33.7
42 | AAAAAGAUAGGAUAUACAUGAAAAAAAAAAAAAAAAAAAAGACAUGAGGAUCACCCAUGUAGAAGGGUCAAAAA [water's exclusion 2 2nd] | 50.3 | 42.1
43 | AAGAAGCGAGGAUAUACAUGAAAGAAAGAAAAGAAAAGAAAACAUGAGGAUCACCCAUGUAGAAGGCGCAAGAA [EteRNA is fun!] | 21.4 | 28.2
44 | GUCAGCUGAGGAUAUACAGGUGAGGCCGCAUAACAAAAUAUACAUGAGGAUCACCCAUGUAGAAGGCGGAAGAC [Soreramare] | 41.1 | 47.6
45 | AUUAUGUCAGGAUAUCAGUAGUAAAAAAAAAAAAUUACUACUGAGAAGGGACAUGAGGAUCACCCAUGUCAAAA [EX4 308: Super Stable 8] | 39 | 34
